The supplement of paper PMC12455559
± gives the standard deviation of the averaged measurements.

Experiments:
[1] = melting temperature (DSF); higher = more thermostable
Procedure, shortened: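 Enzymes made in E. coli C41(DE3) were nickel-bead purified and cut free with SUMO protease before testing. Differential scanning fluorimetry gave each melting temperature. For this, 5 μL 5X Sypro Orange was added to 45 μL enzyme (0 to 0.3 mg/mL) in sealed PCR plates, and a Bio-Rad CFX96 read fluorescence from 25 °C over 250 cycles of 0.3 °C each, ramping at 0.3 °C/s.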

[2] = purified protein yield per well (BCA); higher = higher soluble expression
Procedure, shortened: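 Candidate enzymes were made in 2 mL autoinduction cultures of E. coli C41(DE3) with 100 µg/mL kanamycin, at 37 °C for 2 h and then 18 °C for 40 h, and purified with Ni-charged magnetic beads and SUMO protease cleavage. The Pierce Rapid Gold BCA kit gave purified protein yield per well. Values lower than 25 ug (0.1 mg/mL) are below the detection threshold.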

[3] = PET hydrolysis, aromatic products released after 48 h (umol product/mg enzyme); higher = more PET depolymerization activity
Description: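 HTP-purified, SUMO-cleaved, tagless PET hydrolase candidates (5 ug, 1.43 mg/g PET) were incubated 48 h without shaking with 3.5 mg amorphous PET film (aFilm) or crystalline PET powder (cryPow) in 0.5 mL buffer: NaCitrate pH 4.5/5.5, NaPhosphate pH 6.5/7.5, glycine pH 8.5. Incubation was at 40 or 60 C. Aromatic products (TPA, MHET, BHET) in the supernatant were quantified by UV absorbance at 260/280 nm relative to buffer blanks and expressed per mg enzyme. LCC-ICCG was the positive control on every plate.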

[4] = substrate: cryPow, 40 °C, pH 5.5
[5] = substrate: cryPow, 40 °C, pH 6.5
[6] = substrate: cryPow, 40 °C, pH 7.5
[7] = substrate: cryPow, 40 °C, pH 8.5
[8] = substrate: cryPow, 60 °C, pH 5.5
[9] = substrate: cryPow, 60 °C, pH 6.5
[10] = substrate: cryPow, 60 °C, pH 7.5
[11] = substrate: cryPow, 60 °C, pH 8.5
[12] = substrate: aFilm, 40 °C, pH 5.5
[13] = substrate: aFilm, 40 °C, pH 6.5
[14] = substrate: aFilm, 40 °C, pH 7.5
[15] = substrate: aFilm, 60 °C, pH 5.5
[16] = substrate: aFilm, 60 °C, pH 6.5
[17] = substrate: aFilm, 60 °C, pH 7.5

Sequence | melting temperature [1] [C] | purified protein yield per well [2] [µg] | PET hydrolysis [3, 4] | PET hydrolysis [3, 5] | PET hydrolysis [3, 6] | PET hydrolysis [3, 7] | PET hydrolysis [3, 8] | PET hydrolysis [3, 9] | PET hydrolysis [3, 10] | PET hydrolysis [3, 11] | PET hydrolysis ([3]; substrate: aFilm, 40 °C, pH 4.5) | PET hydrolysis [3, 12] | PET hydrolysis [3, 13] | PET hydrolysis [3, 14] | PET hydrolysis ([3]; substrate: aFilm, 60 °C, pH 4.5) | PET hydrolysis [3, 15] | PET hydrolysis [3, 16] | PET hydrolysis [3, 17] | PET hydrolysis ([3]; substrate: cryPow, 40 °C, pH 4.5) | PET hydrolysis ([3]; substrate: cryPow, 60 °C, pH 4.5) | PET hydrolysis ([3]; substrate: aFilm, 40 °C, pH 8.5) | PET hydrolysis ([3]; substrate: aFilm, 60 °C, pH 8.5)
ADNPYQRGPDPTNASIEAATGPFAVGTQPIVGASGFGGGQIYYPTDTSQTYGAVVIVPGFISVWAQLNWLGPRLASQGFVVIGIETSVITDLPDPRGDQALAALDWATTRSPVASRIDRTRLAAAGWSMGGGGLRRAALQRPSLKAIVGMAPWNGERNWSAVTVPTLFFGGSSDAVASPNDHAKPFYNSITRAEKDYIELRNADHFFPTSANTTMAKYFISWLKRWVDNDTRYTQFLCPGPSTGLFAPVSASMNTCPF [DP077] | 60.1 | 87 | 24 | 73 | 90 | 87 | 6 | 23 | 32 | 26 |  |  |  |  |  |  |  |  |  |  |  | 
ADNPYERGPDPTRTSVATERGPFANTSVSVPTGYGFNGGRIYYPTDTSQGTFGAIAISPGYTALFSAELAWMGPWLASHGFVVIGIETNSRNDFDTARGTQLLAALDYLTQQSPVRDRVDASRLAVAGHSMGGGGALSAATRRPALKAAVGITPFSPSSNLANDRVPTMVISGQADTVVTPSYALDLYNSLPSTTESVYVEVAGGDHGFMVGRSNPVMIRTMLPFLKIFVDNDARYSQFLCPLMDNSGVVTYRSTCPLINTPTTPPPTSPPPTSPPPTSPPPTTPPPGSATQIVGVQSNRCIDVPNSSRNNGTRVQLYDCHGQTNQAWTYTANKQLQVYGNMCLDAAGTGNGAAVQIYSCHGGANQQWNVNSNGTISGVQSGRCLDVWSTSNGAQVQLYDCHGGTNQRFNLVAR [TEP082] | 63.1 | 282 | 15 ± 1.4 | 39.5 ± 2.1 | 34 ± 1.4 |  | 2 ± 2.8 | 6 ± 1.4 | 3.5 ± 0.71 |  | < 3 | < 3 | < 3 | < 3 | < 3 | < 3 | < 3 | < 3 | 6.5 ± 0.71 | < 3 |  | 
GETAQTTDVSAQSQFQRGPNPTVSSIEARTGHYRTSTTRVSSFASGFGGGTIYYPTTTSDGTFGGVAVAPGYTASSSTMDWLGPRIASQGFVVFVIDTNTRLDQPSSRGRQLLAALDYLTERSSERHRVDSNRLAVMGHSMGGGGALEATISRPSLKASIPLTPWNLTKNWSRVTTPTLIVGAENDSVASVRSHSIPFYTSLSSSTDRMYVELDGASHFAPNVSNTTIAKYSISWLKRFVDDDTRYDQFLCPLPNERAISDIRGNCPR [DP090] | 51.4 | 423 | < 3 | 7 | 12.5 ± 9.2 | 25.5 ± 0.71 | < 3 | < 3 | 2 ± 2.8 | 2 ± 2.8 |  | < 3 | 5 ± 7.1 | 12 ± 7.1 |  | < 3 | < 3 | < 3 |  |  | 22 ± 17 | < 3
